Tests used:
AcDEVD-pNA = system: T1, AcDEVD-pNA
T1 sequence: DEVD

(AcDEVD)K-pNA = system: T2, (AcDEVD)K-pNA
T2 sequence: DEVD

(AcDVED)K-pNA = system: T3, (AcDVED)K-pNA
T3 sequence: DVED

(AcIEPD)K-pNA = system: T4, (AcIEPD)K-pNA
T4 sequence: IEPD

AcIEPD-pNA = system: T5, AcIEPD-pNA
T5 sequence: IEPD

CAAK(F)-diamino-pNA = system: T6, CAAK(F)-diamino-pNA
T6 sequence: CAAK

(AcAAF)K-pNA = system: T7, (AcAAF)K-pNA
T7 sequence: AAFK

(AcFG)K-pNA [1] = system: T8, (AcFG)K-pNA
T8 sequence: FGK

(AcFG)K-pNA [2] = target: T9, (AcFG)K-pNA (not fully specified)
T9 chain: FGK

Question: Caspase 3 was tested. Which “pNA release on caspase 3 digestion” value (AcDEVD-pNA) did it give?
Answer: Its value is “both substrates are digested efficiently by caspase 3”.

Question: And the “absorbance increase at 405 nm (pNA release), 125 uM substrate first with caspase-3 then with trypsin, over 60 minutes” value ((AcDEVD)K-pNA)?
Answer: Its value is 0.1±0.006 AU.

Question: And the “pNA release relative to the commercial substrate AcDEVD-pNA” value ((AcDEVD)K-pNA)?
Answer: The value was “pNA release from our substrate corresponded to 83% of the release from the commercial substrate”.

Question: What about the “pNA release with trypsin and caspase 3” value ((AcDVED)K-pNA) of the same molecule?
Answer: Its value is “no pNA release occurred when (AcDVED)K-pNA (SEQ ID NO: 2) was incubated with trypsin and caspase 3”.

Question: Which results are given for Caspase 8?
Answer: caspase 8 activity on single enzyme substrate (absorbance, pNA release) (AcDEVD-pNA): cleaved as expected; absorbance increase at 405 nm (pNA release) with caspase 8 and trypsin ((AcIEPD)K-pNA): little to no absorbance increase in the presence of caspase 8 and trypsin; caspase 8 activity on single enzyme substrate (absorbance, pNA release) (AcIEPD-pNA): cleaved as expected; absorbance increase at 405 nm, 500 uM substrate with caspase 8 for 24 hours before adding trypsin ((AcDEVD)K-pNA): did not result in a significant absorbance increase

Question: Which “pNA release (absorbance at 405 nm), 2 mM peptide with trypsin and/or chymotrypsin, 90 minutes at 37 C” value (CAAK(F)-diamino-pNA) does the source give for Chymotrypsin here?
Answer: The value was 55% of the theoretical pNA was released after 90 minutes of incubation.

Question: What about the “absorbance increase at 405 nm (pNA release), 50 uM substrate with chymotrypsin and trypsin, after five hours” value ((AcAAF)K-pNA) of the same molecule?
Answer: Its value is 0.039±0.003 AU.

Question: And the “absorbance increase at 405 nm (pNA release), 100 uM substrate with chymotrypsin and trypsin” value ((AcAAF)K-pNA)?
Answer: The value was 0.070±0.002 AU.

Question: What about the “absorbance increase at 405 nm (pNA release), 200 uM substrate with chymotrypsin and trypsin” value ((AcAAF)K-pNA) of the same molecule?
Answer: Its value is 0.147±0.002 AU.

Question: How did the “pNA release (absorbance at 405 nm) with trypsin only” value ((AcFG)K-pNA [1]) turn out when Trypsin was run?
Answer: The value was “no absorbance increase was observed when the substrate was incubated with each enzyme separately”.

Question: What about the “absorbance increase at 405 nm (pNA release), 100 uM peptide with trypsin only” value ((AcAAF)K-pNA) of the same molecule?
Answer: Its value is “a minimal absorbance increase (0.016±0.002 AU) was observed when 100 µM peptide was incubated with trypsin only”.

Question: And the “absorbance increase at 405 nm (pNA release) with trypsin only” value ((AcDEVD)K-pNA)?
Answer: The value was “In the presence of trypsin or caspase 3 only, no absorbance increase was observed as expected”.

B1: Papain (protein)
chain: IPEYVDWRQKGAVTPVKNQGSCGSCWAFSAVVTIEGIIKIRTGNLNEYSEQELLDCDRRSYGCNGGYPWSALQLVAQYGIHYRNTYPYEGVQRYCRSREKGPYAAKTDGVRQVQPYNEGALLYSIANQPVSVVLEAAGKDFQLYRGGIFVGPCGNKVDHAVAAVGYGPNYILIKNSWGTGWGENGYIRIKRGTGNSYGVCGLYTSSFYPVKN
Question: For B1, which “pNA release (absorbance at 405 nm) with papain and trypsin” value ((AcFG)K-pNA [2]) is on record?
Answer: Its value is “In the presence of papain and trypsin, pNA release from the substrate was observed to be substrate dependent”.

From US20200199177
